Test results taken from paper PMC10330844 (Traffic (Copenhagen, Denmark), 2023).
Values belong to the binder of their own block, whether it stands above or below them.

Assays:
[1] = target: T1, Syntaxin-5 (STX5), endogenous, as precipitated by the anti-STX5 antibody (human (endogenous in HEK293T), UniProt Q13190 1-355); assay: co-IP
T1 sequence (looked up): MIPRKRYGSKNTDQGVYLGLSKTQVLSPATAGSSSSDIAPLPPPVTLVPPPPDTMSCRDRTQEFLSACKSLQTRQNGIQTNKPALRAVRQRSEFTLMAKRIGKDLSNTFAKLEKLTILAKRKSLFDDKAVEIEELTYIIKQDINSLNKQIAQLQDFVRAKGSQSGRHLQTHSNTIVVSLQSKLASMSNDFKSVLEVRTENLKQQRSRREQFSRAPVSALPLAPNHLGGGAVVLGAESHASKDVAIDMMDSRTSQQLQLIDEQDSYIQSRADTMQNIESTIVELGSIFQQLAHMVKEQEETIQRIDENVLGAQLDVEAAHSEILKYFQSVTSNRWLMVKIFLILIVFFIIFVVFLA

[2] = target: T2, SNAP29-His6 (SNAP29 in pET23a) (UniProt O95721 1-258); assay: pull-down
T2 sequence (looked up): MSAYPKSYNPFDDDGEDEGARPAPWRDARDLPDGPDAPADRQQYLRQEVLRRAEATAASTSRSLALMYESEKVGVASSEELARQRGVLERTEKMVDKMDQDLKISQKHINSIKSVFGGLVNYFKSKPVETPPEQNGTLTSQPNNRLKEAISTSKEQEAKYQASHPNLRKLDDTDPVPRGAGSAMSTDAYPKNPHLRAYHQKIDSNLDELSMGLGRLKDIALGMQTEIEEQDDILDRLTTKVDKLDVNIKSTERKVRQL

percent of the cellular protein present in STX5 complexes (GS28 KO cells) [1]: < 25%
B1: VTI1B, endogenous (natural protein, human (endogenous in HEK293T), UniProt Q9UEU0 1-232, looked up)
chain: MASSAASSEHFEKLHEIFRGLHEDLQGVPERLLGTAGTEEKKKLIRDFDEKQQEANETLAEMEEELRYAPLSFRNPMMSKLRNYRKDLAKLHREVRSTPLTATPGGRGDMKYGIYAVENEHMNRLQSQRAMLLQGTESLNRATQSIERSHRIATETDQIGSEIIEELGEQRDQLERTKSRLVNTSENLSKSRKILRSMSRKVTTNKLLLSIIILLELAILGGLVYYKFFRSH

stoichiometry N [2]: 1
B2: GST-STX5 (rSTX5 (55-333) in pGEX-KG) (domain or fragment, UniProt Q08851 55-333, looked up)
chain: MSCRDRTQEFLSACKSLQSRQNGIQTNKPALHATRQCSEFTLMARRIGKDLSNTFAKLEKLTILAKRKSLFDDKAVEIEELTYIIKQDINSLNKQIAQLQDFVRAKGSQSGRHLQTHSNTIVVSLQSKLASMSNDFKSVLEVRTENLKQQRNRREQFSRAPVSALPLAPNNLGGGPIVLGGESRASRDVAIDMMDPRTSQQLQLIDEQDSYIQSRADTMQNIESTIVELGSIFQQLAHMVKEQEETIQRIDENVLGAQLDVEAAHSEILKYFQSVTSNR

percent of the cellular protein present in STX5 complexes (GS28 KO cells) [1]: < 25%
B3: VAMP7, endogenous (natural protein, human (endogenous in HEK293T), UniProt P51809 1-220, looked up)
chain: MAILFAVVARGTTILAKHAWCGGNFLEVTEQILAKIPSENNKLTYSHGNYLFHYICQDRIVYLCITDDDFERSRAFNFLNEIKKRFQTTYGSRAQTALPYAMNSEFSSVLAAQLKHHSENKGLDKVMETQAQVDELKGIMVRNIDLVAQRGERLELLIDKTENLVDSSVTFKTTSRNLARAMCMKNLKLTIIIIIVSIVFIYIIVSPLCGGFTWPSCVKK

percent of the cellular protein present in STX5 complexes (GS28 KO cells) [1]: ~35%
B4: SNAP29, endogenous (natural protein, human (endogenous in HEK293T), UniProt O95721 1-258, looked up)
chain: T2 sequence (looked up)
